Assay [1] concerns the target T1, human ecto-nucleoside triphosphate diphosphohydrolase-3 (NTPDase3) (human, UniProt O75355 1-529).
T1 chain: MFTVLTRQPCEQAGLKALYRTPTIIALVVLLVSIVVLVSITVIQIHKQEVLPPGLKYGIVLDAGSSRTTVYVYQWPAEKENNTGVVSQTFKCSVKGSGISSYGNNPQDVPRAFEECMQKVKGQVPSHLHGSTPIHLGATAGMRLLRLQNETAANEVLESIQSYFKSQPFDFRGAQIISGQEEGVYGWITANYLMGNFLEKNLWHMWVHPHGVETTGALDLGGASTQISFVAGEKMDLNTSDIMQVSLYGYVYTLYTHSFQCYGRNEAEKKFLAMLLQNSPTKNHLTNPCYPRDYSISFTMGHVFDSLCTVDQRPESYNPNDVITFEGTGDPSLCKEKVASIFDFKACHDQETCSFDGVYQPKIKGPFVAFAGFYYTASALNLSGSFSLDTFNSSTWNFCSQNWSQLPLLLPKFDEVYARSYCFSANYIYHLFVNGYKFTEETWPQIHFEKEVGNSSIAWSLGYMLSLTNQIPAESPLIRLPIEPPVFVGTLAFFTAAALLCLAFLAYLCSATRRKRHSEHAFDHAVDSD
Put plainly: flow cytometry; RT4 cells.

Assay [2] addresses T1, human ecto-nucleoside triphosphate …. As to the kind of experiment: flow cytometry; COS7-hENTPD3 cells.
Assay [3] shares this target. As to the kind of experiment: flow cytometry; HEK293T-hENTPD3 cells. For orientation: In flow cytometry, cells or beads pass a laser one at a time.
Assay [4] shares this target. As to the kind of experiment: flow cytometry; CHO-hENTPD3 cells.
For assay [5] the target is unchanged. Put plainly: flow cytometry; HEK293T-hENTPD3 cells.
Assay [6] shares this target. As to the kind of experiment: flow cytometry; COS7-hENTPD3 cells.
Assay [7] has the same target. As to the kind of experiment: flow cytometry; COS7-hENTPD3 cells.
For assay [8] the target is unchanged. Put plainly: flow cytometry; CHO-hENTPD3 cells.
For assay [9] the target is unchanged. As to the kind of experiment: flow cytometry; CHO-hENTPD3 cells.
Assay [10] has the same target. Put plainly: flow cytometry; CHO-hENTPD3 cells, 20 min at 4°C.
Assay [11] has the same target. Put plainly: flow cytometry; CHO-hENTPD3 cells.
The target is the same in assay [12]. As to the kind of experiment: flow cytometry; COS7-hENTPD3 cells.
For assay [13] the target is unchanged. Put plainly: flow cytometry; CHO-hENTPD3 cells, 2h at 37°C.

B1: 37H1 Hu/Ra (antibody, V domains shown)
VH: QSVEESGGRLVTPGTPLTLTCTVSGFSLSSYAVGWVRQAPGKGLEFIGIITYNGATYYASWAEGRFPISKTSSTTVDLKMTSPTTEDTATYFCARARYGGYSTNSYYLNIWGPGTLVTVSS
VL: DVVMTQTPASVSAAVGGTVTINCQASENIYRILAWYQQKPGQRPKLLIYGASNLETGVPSRFKGSGSGTEYTLTISDLECDDAATYYCQGVLWNSNDSTFGGGTEVVVKG
Broadly, the Kd is the equilibrium constant for the complex coming apart. Higher therefore signals weaker binding. For the molecule B1, the Kd in assay [1] is 0.16 nM; in assay [2], 0.54 nM; in assay [3] it was 1.4 nM; in [4], 2.26 nM.

B2: 4F9 Hu/Ra (antibody, V domains shown)
VH: QSVEESGGRLVTPGTPLTLTCTVSGFSLSSYAMGWVRQAPGKGLEFIGIITYNGNTYYASWAKGRFPISKTSSTTVDLKMTSPTTEDTATYFCARARYGGYSTNSYYLNIWGPGTLVTVSS
VL: DVVMTQTPASVSAAVGGTVTINCQASENIYRILAWYQQKPGQRPKLLIYGASNLETGVPSRFKGSGSGTEYTLTISDLECDDAATYYCQGVLYNSNDSTFGGGTEVVVKG
Consider B2, for which the Kd in assay [1] amounted to 0.19 nM; in [2], 0.45 nM; in [3] it was 0.46 nM; in assay [4] it was 1.52 nM.

B3: 16D4 Hu/Ra (antibody, V domains shown)
VH: QSVEESGGRLVTPGTPLTLTCTVSGFSLSSYAMGWVRQAPGKGLEFIGIITYNGGTYYASWAKGRFPISKTSSTTVDLKMTSPTTEDTATYFCARARYGGYSTNSYYLNIWGPGTLVTVSS
VL: DVVMTQTPASVSAAVGGTVTINCQASENIYRVLAWYQQKPGQRPKLLIYGASNLETGVPSRFKGSGSGTEYTLTISDLECDDAATYYCQGVLYDNNDSTFGGGTEVVVKG
B3: the equilibrium dissociation constant (Kd) in assay [1] is 0.2 nM; in assay [2] it was 0.8 nM; in assay [3] it was 0.38 nM; in [4], 1.94 nM.

B4: 38D5 hIgG1 (antibody, V domains shown)
VH: EQQLLESGGGLVQPGGSLRLSCAASGIDFNNYGISWVRQAPGKGLEWIAYKYPGFGIRNYANSVKGRFTISSDNSKNTVYLQMNSLRAEDTAVYFCARGARYRHDDYGALNLWGPGTLVTVSS
VL: DIQMTQSPSTLSASVGDRVTITCQASQSVTNLLAWYQQKPGKPPKLLIYGASNLESGVPSRFSGSGSGTEFTLTISSLQPDDFATYYCQSGYYSANTFGPGTKVDIK
On to B4, for which the Kd was 4.34 nM in [5]; 0.52 nM in [6]; 0.56 nM in assay [7]; 0.89 nM in assay [8]; 0.56 nM in assay [9].

B5: humanized 38D5 hIgG1 variant LC.1 (P43A) (antibody, V domains shown)
VH: EQQLLESGGGLVQPGGSLRLSCAASGIDFNNYGISWVRQAPGKGLEWIAYKYPGFGIRNYANSVKGRFTISSDNSKNTVYLQMNSLRAEDTAVYFCARGARYRHDDYGALNLWGPGTLVTVSS
VL: DIQMTQSPSTLSASVGDRVTITCQASQSVTNLLAWYQQKPGKAPKLLIYGASNLESGVPSRFSGSGSGTEFTLTISSLQPDDFATYYCQSGYYSANTFGPGTKVDIK
With B5, the Kd was determined as 0.85 nM in assay [6] and 1.5 nM in assay [8].

B6: PBI #30 hIgG1 (antibody, V domains shown)
VH: QVQLQESGGGLIQPGGSLRLSCAASGFTSSSSDYAMSWVRQAPGKGLEWVSSISGSGGSTYYADSVKGRFTISRDNSKNTLYVQMTSLTAEDTAVYYCAKVVGYSMYDYYYHYALDVWGQGTTVTVSS
VL: QPVLTQPPSASGTPGQRVTISCSGSSSNIGSNTVNWYQQLPGTAPKLLIYSNNQRPSGVPDRFSGSKSGTSASLTISGLKTEDEAGYYCQSYDTSNVVFGGGTKVTVLG
For the molecule B6, the Kd in assay [10] worked out at 20.9 nM; in assay [11], 1.64 nM.

B7: PBI #30af4 hIgG1 (antibody, V domains shown)
VH: QVQLQESGGGLIQPGGSLRLSCAASGFTSSSSDYAMSWVRQAPGKGLEWVSSISGSGVSTYYADSVKGRFTISRDNSKNTLYVQMTSLTAEDTAVYYCAKVVGYSVYDYYYHYALDVWGQGTTVTVSS
VL: QPVLTQPPSASGTPGQRVTISCSGSSSNIGSNTVNWYQQLPGTAPKLLIYSDNQRPSGVPDRFSGSKSGTSASLTISGLKTEDEAGYYCQSDDTSNVVFGGGTKVTVL
As to B7, the dissociation constant Kd was found to be 1.26 nM in assay [12] and 1.62 nM in assay [11].

B8: PBI #30af7 hIgG1 (antibody, V domains shown)
VH: QVQLQESGGGLIQPGGSLRLSCAASGFTTSSSDYAMSWVRQAPGKGLEWVSSISGSGGSTYYADSVKGRFTISRDNSKNTLYVQMTSLTAEDTAVYYCAKDVGYSTYDYYYHYALDVWGQGTTVTVSS
VL: QPVLTQPPSASGTPGQRVTISCSGSSSNVGSNTVNWYQQLPGTAPKLLIYSNNQRPSGVPDRFSGSKSGTSASLTISGLKTEDEAGYYCQSYDTSNVVFGGGTKVTVL
As to B8, the Kd in [12] was determined as 1.68 nM; in [11], 1.87 nM.

B9: PBI #30af7 hIgG4 (antibody, V domains shown)
VH: QVQLQESGGGLIQPGGSLRLSCAASGFTTSSSDYAMSWVRQAPGKGLEWVSSISGSGGSTYYADSVKGRFTISRDNSKNTLYVQMTSLTAEDTAVYYCAKDVGYSTYDYYYHYALDVWGQGTTVTVSS
VL: QPVLTQPPSASGTPGQRVTISCSGSSSNVGSNTVNWYQQLPGTAPKLLIYSNNQRPSGVPDRFSGSKSGTSASLTISGLKTEDEAGYYCQSYDTSNVVFGGGTKVTVL
As for B9, the Kd in [12] was 2.83 nM; in assay [11], 2.61 nM.

B10: 44H5 Hu/Ra (antibody, V domains shown)
VH: QEQLEESGGDLVKPEGSLTLTCTASGFDSSSTYYMCWVRQAPGKGLEWSGCIYTGGLTYYASWAKGRFTISKTSSTTVTLQMTSLTAADTATYFCASYIGSRFYMPGFSLWGPGTLVTVSS
VL: AIVMTQTPSSKSVPVGDTVTINCQASESIYSNNRLAWFQQKPGQPPKLLIYLASTLASGVPSRFKGSGSGTQFTLTISDVVCDDAATYYCAGYKGSSTDGTAFGGGTEVVVKG
For the molecule B10, the Kd was 1.15 nM in assay [1], 0.3 nM in [2], 0.15 nM in assay [3] and 0.95 nM in assay [4].

B11: 38D5 Hu/Ra (antibody, V domains shown)
VH: QELVESGGGLVQPGGSLKLSCKASGIDFNNYGISWVRQAPGKGLEWIAYKYPGFGIRNYANSVKGRFTISSDNAQNTVFLQMTSLAASDTATYFCARGARYRHDDYGALNLWGPGTLVTVSS
VL: DIVMTQTPPSVSAAVGGTVTINCQASQSVTNLLAWYQQKPGQPPKLLIYGASNLESGVPSRFRGSGSGTEFTLTISGMKAEDAATYYCQSGYYSANTFGAGTKVGIKR
Consider B11, for which the Kd in assay [5] amounted to 6.56 nM; in assay [2] it was 1.93 nM; in assay [10], 22.3 nM; in assay [7], 0.96 nM; in assay [3] it was 2.22 nM; in [4] it was 26.6 nM. For the same molecule, the Kd in assay [9] turned out to be 1.11 nM; in assay [13], 2.54 nM.

B12: 38D12 Hu/Ra (antibody, V domains shown)
VH: QSVEESGGRLVTPGTPLTLTCTVSGFSLSSYVINWVRQAPGKGLEWIGTISSSGSTYYASWAKGRFTISTTSSTTVDLKITSPTTEDTATYFCARGADGAFISDYFNIWGPGTLVTVSS
VL: DIVMTQTPSSVSAAVGGTVTIKCQANENIDSWLAWYQQKPGQRPKLLIYYASTLASGVPSRFKGSGSGTEYTLTISDLECADGATYYCQSYDTISDYGVGFGGGTEVVVKG
Take B12: the Kd in assay [1] amounted to 2.63 nM; in [2] it was 2.8 nM; in [3], 3.06 nM; in [4], 8.3 nM.

For the origin of these results see patent US20240052061A1 (published 2024).
